Target: T1, mouse MDM2 (Mus musculus, UniProt P23804)
T1 construct: gene PCR-cloned from mouse prostate cell line
Assay: ELISA of MDM2 binding to immobilised biotinylated p53 peptides (peptide library, alanine and conserved substitution series)
Conditions: consensus peptide and alanine substitution series, Example 3, FIG. 5
Description: The libraries were in the form of 15 mer peptides linked to biotin via an additional peptide spacer region of serine-glycine-serine-glycine, and each peptide shared a 5 amino acid overlap with the previous peptide in the primary sequence. ELISA plates were coated with 100 μof 5 μg/ml streptavidin (vector labs) per well and incubated overnight at 37° C. and then blocked with phosphate buffered saline (PBS) containing 2% bovine serum albumin (BSA) for 1 hour at room temperature. The stock biotinylated peptides were diluted to 5 μg/ml in PBS containing 0.1 BSA and 50 μl of each were plated into designed wells and then incubated at room temperature for 1 hour. […] In the case of cell extracts bound protein was detected with the appropriate primary antibody at 1-3 μg/ml, and followed by an anti-mouse horse radish peroxidase conjugate and 3'3'4'4'-tetramethyl benzidine (TMB) substrate as in the standard ELISA assay (Harlow, E., et al (1988). Antibodies: a laboratory manual. New York. Cold Spring Harbor Laboratory Press and Lane, 1988).
These libraries consisted of 15 amino acid long sections of the p53 primary amino acid sequence, that consecutively overlapped by 5 amino acids, and were each attached to biotin via a 4 amino acid long spacer. […] The results are presented alongside the ELISA readings for extract of insect cells alone not expressing mouse MDM2. […]

T1 sequence (P23804 whole entry): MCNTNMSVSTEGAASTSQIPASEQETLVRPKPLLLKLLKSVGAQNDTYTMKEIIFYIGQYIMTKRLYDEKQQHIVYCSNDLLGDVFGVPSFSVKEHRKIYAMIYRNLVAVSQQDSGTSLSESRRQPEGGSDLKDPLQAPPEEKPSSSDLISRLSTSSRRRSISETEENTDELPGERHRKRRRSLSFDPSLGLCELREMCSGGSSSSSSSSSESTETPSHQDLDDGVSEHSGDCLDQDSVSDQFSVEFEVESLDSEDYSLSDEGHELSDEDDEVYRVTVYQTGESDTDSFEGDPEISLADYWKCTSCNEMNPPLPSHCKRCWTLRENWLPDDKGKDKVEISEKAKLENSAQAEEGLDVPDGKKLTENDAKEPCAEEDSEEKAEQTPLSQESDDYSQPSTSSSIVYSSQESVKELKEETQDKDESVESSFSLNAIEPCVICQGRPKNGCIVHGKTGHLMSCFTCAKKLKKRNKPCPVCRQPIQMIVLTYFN

Q: For QETFSDLWKL, which “level of MDM2 binding as measured by ELISA” value is on record?
A: The value was “higher level of binding of MDM2”.
